The values below come from publication PMC4254523.

Assay in all cases: SPR
For orientation: SPR reads the build-up and loss of mass on a sensor chip optically.

Experiment [1] concerns the target human FcγRII (CD32), CD32A-131H (human) (UniProt P12318).
For experiment [2], the target named is human FcγRII (CD32), CD32B (human) (UniProt P31994).
In experiment [3] the target is human FcγRII (CD32), CD32A-131R (human).

Chain of UniProt P12318 (P12318 34-317): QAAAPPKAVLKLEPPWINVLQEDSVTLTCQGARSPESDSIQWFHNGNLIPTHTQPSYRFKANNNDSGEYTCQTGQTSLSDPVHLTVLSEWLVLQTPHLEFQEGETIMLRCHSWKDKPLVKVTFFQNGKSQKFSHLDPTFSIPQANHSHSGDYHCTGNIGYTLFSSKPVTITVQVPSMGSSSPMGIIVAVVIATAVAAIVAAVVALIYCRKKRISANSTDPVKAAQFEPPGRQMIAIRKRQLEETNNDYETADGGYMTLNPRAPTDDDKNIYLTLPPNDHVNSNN
Chain of UniProt P31994 (P31994 43-310): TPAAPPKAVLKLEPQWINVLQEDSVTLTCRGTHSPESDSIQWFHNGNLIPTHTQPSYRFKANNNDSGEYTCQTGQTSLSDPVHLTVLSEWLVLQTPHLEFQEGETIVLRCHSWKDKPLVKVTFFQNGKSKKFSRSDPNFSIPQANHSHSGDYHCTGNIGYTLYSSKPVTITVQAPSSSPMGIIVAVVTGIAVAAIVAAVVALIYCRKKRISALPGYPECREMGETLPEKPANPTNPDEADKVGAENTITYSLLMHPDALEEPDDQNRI

In experiment [1], mouse 3F8 (IgG3) (antibody) came in with a Ka of 17300 M⁻¹ and an off-rate (koff) of 1.1 s⁻¹. In experiment [2], the Ka turned out to be 5660 M⁻¹, the off-rate constant (koff) turned out to be 2.03 s⁻¹ and the kon came to 11500 M⁻¹ s⁻¹.
For hu3F8 (IgG1) (antibody), in that order: 631000 M⁻¹, 0.427 s⁻¹, 83700 M⁻¹, 0.341 s⁻¹ and 28600 M⁻¹ s⁻¹.

B1: hu3F8 (IgG1) (antibody, V domains shown)
VH: QVQLVESGPGVVQPGRSLRISCAVSGFSVTNYGVHWVRQPPGKGLEWLGVIWAGGITNYNSAFMSRLTISKDNSKNTVYLQMNSLRAEDTAMYYCASRGGHYGYALDYWGQGTLVTVSS
VL: EIVMTQTPATLSVSAGERVTITCKASQSVSNDVTWYQQKPGQAPRLLIYSASNRYSGVPARFSGSGYGTEFTFTISSVQSEDFAVYFCQQDYSSFGQGTKLEIK
In experiment [3], B1 showed a Ka of 368000 M⁻¹, a koff of 0.406 s⁻¹ and a kon of 149000 M⁻¹ s⁻¹.

B2: mouse 3F8 (IgG3) (antibody, V domains shown)
VH: QVQLKESGPGLVAPSQSLSITCTVSGFSVTNYGVHWVRQPPGKGLEWLGVIWAGGITNYNSAFMSRLSISKDNSKSQVFLKMNSLQIDDTAMYYCASRGGHYGYALDYWGQGTSVTVSS
VL: SIVMTQTPKFLLVSAGDRVTITCKASQSVSNDVTWYQQKAGQSPKLLIYSASNRYSGVPDRFTGSGYGTAFTFTISTVQAEDLAVYFCQQDYSSFGGGTKLEIK
With B2, in experiment [3], the Ka turned out to be 71500 M⁻¹, the koff came to 0.363 s⁻¹ and the kon was found to be 25900 M⁻¹ s⁻¹.

A word on the koff: it is a measure of how fast the partners let go of each other. A low value points to a long-lived complex. What is called kon is a measure of how fast the partners come together. High values mean faster complex formation, low ones slower complex formation.
